Assay results reported in paper PMC2111714.

Molecular target: Cross-linked succinyl Con A (resuccinylated) (Canavalia ensiformis (jack bean))
Assay: radioligand binding

## Dolichos biflorus lectin (natural protein)
  glycoprotein specifically bound: 96 ng/plate
